Test results: US20210309722A1 (DUKE UNIVERSITY, published 2021)

How the values were obtained:
[1] = target: FGF21 receptor complex (murine β-Klotho and FGF receptor 1) (murine, UniProt Q99N32 1-1043; P16092 22-822); assay: cell-based or functional assay
GLP-1 receptor = assay: cell-based or functional assay

FGF21 receptor complex (murine β-Klotho and FGF receptor 1), sequence (Q99N32 whole entry, chain 1 of 2): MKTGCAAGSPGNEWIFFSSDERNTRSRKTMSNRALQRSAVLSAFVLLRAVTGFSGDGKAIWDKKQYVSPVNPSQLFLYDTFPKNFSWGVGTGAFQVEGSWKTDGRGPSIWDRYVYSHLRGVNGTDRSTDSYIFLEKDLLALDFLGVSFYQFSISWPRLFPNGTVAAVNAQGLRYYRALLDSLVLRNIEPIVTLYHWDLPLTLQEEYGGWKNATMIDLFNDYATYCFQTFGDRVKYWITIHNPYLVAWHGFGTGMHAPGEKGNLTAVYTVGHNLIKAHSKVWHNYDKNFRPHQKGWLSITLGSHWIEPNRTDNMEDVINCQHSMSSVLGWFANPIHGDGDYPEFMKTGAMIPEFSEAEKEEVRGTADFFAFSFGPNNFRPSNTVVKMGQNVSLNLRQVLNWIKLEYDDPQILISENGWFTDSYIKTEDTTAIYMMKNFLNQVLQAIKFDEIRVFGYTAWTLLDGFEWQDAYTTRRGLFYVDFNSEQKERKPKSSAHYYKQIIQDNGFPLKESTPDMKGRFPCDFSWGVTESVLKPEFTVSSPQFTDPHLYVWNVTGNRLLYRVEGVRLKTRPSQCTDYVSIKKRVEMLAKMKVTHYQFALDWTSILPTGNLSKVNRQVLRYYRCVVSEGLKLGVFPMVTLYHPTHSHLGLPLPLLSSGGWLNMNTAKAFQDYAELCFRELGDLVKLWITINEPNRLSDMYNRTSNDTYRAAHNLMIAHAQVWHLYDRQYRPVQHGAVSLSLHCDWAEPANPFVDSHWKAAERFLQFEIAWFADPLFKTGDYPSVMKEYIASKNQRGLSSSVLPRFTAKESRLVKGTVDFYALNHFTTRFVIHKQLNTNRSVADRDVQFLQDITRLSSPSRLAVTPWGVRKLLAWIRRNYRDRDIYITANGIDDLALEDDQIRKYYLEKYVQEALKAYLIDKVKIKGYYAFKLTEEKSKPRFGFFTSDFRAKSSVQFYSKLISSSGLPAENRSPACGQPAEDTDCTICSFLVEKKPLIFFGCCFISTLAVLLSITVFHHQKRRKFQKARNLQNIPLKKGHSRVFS
FGF21 receptor complex (murine β-Klotho and FGF receptor 1), sequence (P16092 22-822, chain 2 of 2): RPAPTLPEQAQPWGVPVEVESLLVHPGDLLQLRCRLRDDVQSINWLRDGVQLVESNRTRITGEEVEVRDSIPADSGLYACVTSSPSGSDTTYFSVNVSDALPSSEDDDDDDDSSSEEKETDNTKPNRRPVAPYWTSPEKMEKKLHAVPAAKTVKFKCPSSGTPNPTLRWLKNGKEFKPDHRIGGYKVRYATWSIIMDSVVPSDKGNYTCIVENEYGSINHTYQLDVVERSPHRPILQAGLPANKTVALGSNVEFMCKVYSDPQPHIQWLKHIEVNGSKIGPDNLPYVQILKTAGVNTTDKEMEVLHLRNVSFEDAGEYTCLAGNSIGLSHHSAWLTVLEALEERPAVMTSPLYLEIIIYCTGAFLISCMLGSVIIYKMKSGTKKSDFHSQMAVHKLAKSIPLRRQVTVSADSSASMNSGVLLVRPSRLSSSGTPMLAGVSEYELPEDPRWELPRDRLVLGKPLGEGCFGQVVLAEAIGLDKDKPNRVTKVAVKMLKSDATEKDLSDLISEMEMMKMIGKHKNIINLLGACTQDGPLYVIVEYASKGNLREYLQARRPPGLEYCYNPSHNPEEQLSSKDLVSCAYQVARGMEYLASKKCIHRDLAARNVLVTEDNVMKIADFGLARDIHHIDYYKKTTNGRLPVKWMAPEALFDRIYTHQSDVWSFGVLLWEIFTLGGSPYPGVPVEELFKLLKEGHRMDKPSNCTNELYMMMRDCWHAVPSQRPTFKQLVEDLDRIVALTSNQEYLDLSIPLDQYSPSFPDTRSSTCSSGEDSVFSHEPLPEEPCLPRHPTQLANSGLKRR

Binder	FGF21 receptor EC50, ERK1/2 phosphorylation (phospho-ERK1/2 normalized to total ERK1/2) in HEK293 cells expressing FGFR1 and β-Klotho [1]	GLP-1R EC50, cAMP production (cAMP-inducible luciferase reporter) in HEK293 cells expressing GLP-1R (GLP-1 receptor)	fold increase of EC50 against native GLP1, cAMP production assay (GLP-1 receptor)	further results
ELP20%Ala,120-FGF21 (other) GVGVPGVGVPGAGVPGVGVPGVGVPGVGVPGVGVPGAGVPGVGVPGVGVPGVGVPGVGVPGAGVPGVGVPGVGVPGVGVPGVGVPGAGVPGVGVPGVGVPGVGVPGVGVPGAGVPGVGVPGVGVPGVGVPGVGVPGAGVPGVGVPGVGVPGVGVPGVGVPGAGVPGVGVPGVGVPGVGVPGVGVPGAGVPGVGVPGVGVPGVGVPGVGVPGAGVPGVGVPGVGVPGVGVPGVGVPGAGVPGVGVPGVGVPGVGVPGVGVPGAGVPGVGVPGVGVPGVGVPGVGVPGAGVPGVGVPGVGVPGVGVPGVGVPGAGVPGVGVPGVGVPGVGVPGVGVPGAGVPGVGVPGVGVPGVGVPGVGVPGAGVPGVGVPGVGVPGVGVPGVGVPGAGVPGVGVPGVGVPGVGVPGVGVPGAGVPGVGVPGVGVPGVGVPGVGVPGAGVPGVGVPGVGVPGVGVPGVGVPGAGVPGVGVPGVGVPGVGVPGVGVPGAGVPGVGVPGVGVPGVGVPGVGVPGAGVPGVGVPGVGVPGVGVPGVGVPGAGVPGVGVPGVGVPGVGVPGVGVPGAGVPGVGVPGVGVPGVGVPGVGVPGAGVPGVGVPGVGVPGAYPIPDSSPLLQFGGQVRQRYLYTDDDQDTEAHLEIREDGTVVGAAHRSPESLLELKALKPGVIQILGVKASRFLCQQPDGALYGSPHFDPEACSFRERLLEDGYNVYQSEAHGLPLRLPQKDSPNQDATSWGPVRFLPMPGLLHEPQDQAGFLPPEPPDVGSSDPLSMVEGSQGRSPSYASG	18.8 nM			fold increase of FGF21 receptor EC50 against native mouse FGF21, ERK1/2 phosphorylation assay [1]: ~20 fold
GLP1-ELP20%Ala,120-FGF21 (no AA leader) (other) HGEGTFTSDVSSYLEEQAAKEFIAWLVKGAGVGVPGVGVPGAGVPGVGVPGVGVPGVGVPGVGVPGAGVPGVGVPGVGVPGVGVPGVGVPGAGVPGVGVPGVGVPGVGVPGVGVPGAGVPGVGVPGVGVPGVGVPGVGVPGAGVPGVGVPGVGVPGVGVPGVGVPGAGVPGVGVPGVGVPGVGVPGVGVPGAGVPGVGVPGVGVPGVGVPGVGVPGAGVPGVGVPGVGVPGVGVPGVGVPGAGVPGVGVPGVGVPGVGVPGVGVPGAGVPGVGVPGVGVPGVGVPGVGVPGAGVPGVGVPGVGVPGVGVPGVGVPGAGVPGVGVPGVGVPGVGVPGVGVPGAGVPGVGVPGVGVPGVGVPGVGVPGAGVPGVGVPGVGVPGVGVPGVGVPGAGVPGVGVPGVGVPGVGVPGVGVPGAGVPGVGVPGVGVPGVGVPGVGVPGAGVPGVGVPGVGVPGVGVPGVGVPGAGVPGVGVPGVGVPGVGVPGVGVPGAGVPGVGVPGVGVPGVGVPGVGVPGAGVPGVGVPGVGVPGVGVPGVGVPGAGVPGVGVPGVGVPGVGVPGVGVPGAGVPGVGVPGVGVPGVGVPGVGVPGAGVPGVGVPGVGVPGVGVPGVGVPGAGVPGVGVPGVGVPGAYPIPDSSPLLQFGGQVRQRYLYTDDDQDTEAHLEIREDGTVVGAAHRSPESLLELKALKPGVIQILGVKASRFLCQQPDGALYGSPHFDPEACSFRERLLEDGYNVYQSEAHGLPLRLPQKDSPNQDATSWGPVRFLPMPGLLHEPQDQAGFLPPEPPDVGSSDPLSMVEGSQGRSPSYASG		0.0239 nM	~10 fold	
GLP1-ELP20%Ala,120 (other) HGEGTFTSDVSSYLEEQAAKEFIAWLVKGAGVGVPGVGVPGAGVPGVGVPGVGVPGVGVPGVGVPGAGVPGVGVPGVGVPGVGVPGVGVPGAGVPGVGVPGVGVPGVGVPGVGVPGAGVPGVGVPGVGVPGVGVPGVGVPGAGVPGVGVPGVGVPGVGVPGVGVPGAGVPGVGVPGVGVPGVGVPGVGVPGAGVPGVGVPGVGVPGVGVPGVGVPGAGVPGVGVPGVGVPGVGVPGVGVPGAGVPGVGVPGVGVPGVGVPGVGVPGAGVPGVGVPGVGVPGVGVPGVGVPGAGVPGVGVPGVGVPGVGVPGVGVPGAGVPGVGVPGVGVPGVGVPGVGVPGAGVPGVGVPGVGVPGVGVPGVGVPGAGVPGVGVPGVGVPGVGVPGVGVPGAGVPGVGVPGVGVPGVGVPGVGVPGAGVPGVGVPGVGVPGVGVPGVGVPGAGVPGVGVPGVGVPGVGVPGVGVPGAGVPGVGVPGVGVPGVGVPGVGVPGAGVPGVGVPGVGVPGVGVPGVGVPGAGVPGVGVPGVGVPGVGVPGVGVPGAGVPGVGVPGVGVPGVGVPGVGVPGAGVPGVGVPGVGVPGVGVPGVGVPGAGVPGVGVPGVGVPGVGVPGVGVPGAGVPGVGVPGVGVPG		0.0295 nM	~10 fold	fold increase of EC50 against native GLP-1, cAMP production assay (GLP-1 receptor): 10 fold; fold increase of GLP-1R EC50 against native GLP-1, cAMP production assay (GLP-1 receptor): ~10 fold
GLP1-ELP20%Ala,120-FGF21 (other) AAHGEGTFTSDVSSYLEEQAAKEFIAWLVKGAGVGVPGVGVPGAGVPGVGVPGVGVPGVGVPGVGVPGAGVPGVGVPGVGVPGVGVPGVGVPGAGVPGVGVPGVGVPGVGVPGVGVPGAGVPGVGVPGVGVPGVGVPGVGVPGAGVPGVGVPGVGVPGVGVPGVGVPGAGVPGVGVPGVGVPGVGVPGVGVPGAGVPGVGVPGVGVPGVGVPGVGVPGAGVPGVGVPGVGVPGVGVPGVGVPGAGVPGVGVPGVGVPGVGVPGVGVPGAGVPGVGVPGVGVPGVGVPGVGVPGAGVPGVGVPGVGVPGVGVPGVGVPGAGVPGVGVPGVGVPGVGVPGVGVPGAGVPGVGVPGVGVPGVGVPGVGVPGAGVPGVGVPGVGVPGVGVPGVGVPGAGVPGVGVPGVGVPGVGVPGVGVPGAGVPGVGVPGVGVPGVGVPGVGVPGAGVPGVGVPGVGVPGVGVPGVGVPGAGVPGVGVPGVGVPGVGVPGVGVPGAGVPGVGVPGVGVPGVGVPGVGVPGAGVPGVGVPGVGVPGVGVPGVGVPGAGVPGVGVPGVGVPGVGVPGVGVPGAGVPGVGVPGVGVPGVGVPGVGVPGAGVPGVGVPGVGVPGVGVPGVGVPGAGVPGVGVPGVGVPGAYPIPDSSPLLQFGGQVRQRYLYTDDDQDTEAHLEIREDGTVVGAAHRSPESLLELKALKPGVIQILGVKASRFLCQQPDGALYGSPHFDPEACSFRERLLEDGYNVYQSEAHGLPLRLPQKDSPNQDATSWGPVRFLPMPGLLHEPQDQAGFLPPEPPDVGSSDPLSMVEGSQGRSPSYASG	43.2 nM			
GLP1-ELP-FGF21 (after removal of the expression-enhancing sequence) (other) MSKGPGENLYFQGAHGEGTFTSDVSSYLEEQAAKEFIAWLVKGAGVGVPGVGVPGAGVPGVGVPGVGVPGVGVPGVGVPGAGVPGVGVPGVGVPGVGVPGVGVPGAGVPGVGVPGVGVPGVGVPGVGVPGAGVPGVGVPGVGVPGVGVPGVGVPGAGVPGVGVPGVGVPGVGVPGVGVPGAGVPGVGVPGVGVPGVGVPGVGVPGAGVPGVGVPGVGVPGVGVPGVGVPGAGVPGVGVPGVGVPGVGVPGVGVPGAGVPGVGVPGVGVPGVGVPGVGVPGAGVPGVGVPGVGVPGVGVPGVGVPGAGVPGVGVPGVGVPGVGVPGVGVPGAGVPGVGVPGVGVPGVGVPGVGVPGAGVPGVGVPGVGVPGVGVPGVGVPGAGVPGVGVPGVGVPGVGVPGVGVPGAGVPGVGVPGVGVPGVGVPGVGVPGAGVPGVGVPGVGVPGVGVPGVGVPGAGVPGVGVPGVGVPGVGVPGVGVPGAGVPGVGVPGVGVPGVGVPGVGVPGAGVPGVGVPGVGVPGVGVPGVGVPGAGVPGVGVPGVGVPGVGVPGVGVPGAGVPGVGVPGVGVPGVGVPGVGVPGAGVPGVGVPGVGVPGVGVPGVGVPGAGVPGVGVPGVGVPGVGVPGVGVPGAGVPGVGVPGVGVPGAYPIPDSSPLLQFGGQVRQRYLYTDDDQDTEAHLEIREDGTVVGAAHRSPESLLELKALKPGVIQILGVKASRFLCQQPDGALYGSPHFDPEACSFRERLLEDGYNVYQSEAHGLPLRLPQKDSPNQDATSWGPVRFLPMPGLLHEPQDQAGFLPPEPPDVGSSDPLSMVEGSQGRSPSYASG				EC50, cAMP production (cAMP-inducible luciferase reporter) in HEK293 cells expressing GLP1R (GLP-1 receptor): 0.212 nM
